The values that follow come from patent US6461630.

In this test the target is demineralized, guanidine-extracted bovine collagen carrier matrix material (bovine) (UniProt P02453). The test is described as follows: OP-1 in 47.5% ethanol/0.01% TFA incubated 3 h with bovine collagen matrix; fraction bound to the matrix before lyophilization.

OP-1, sequence (P18075 293-431 limits assumed): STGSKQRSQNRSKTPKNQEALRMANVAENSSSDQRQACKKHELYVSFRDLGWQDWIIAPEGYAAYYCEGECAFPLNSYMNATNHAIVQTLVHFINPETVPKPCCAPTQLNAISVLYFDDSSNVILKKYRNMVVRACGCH

On to “OP-1 (from UniProt P18075 293-431) (ligand)”, for which the % OP-1 bound at 3 hr lay in the range of 53 to 64%.
